Measurements reported in the nanobody polyreactivity screen of Harvey et al. (2022).

Experiment: yeast display, Sf9 membrane polyspecificity reagent, FACS + sequencing; frameworks hold sequencing errors
In short: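 Genes from sorted yeast were amplified by colony PCR, read by MiSeq 2 × 250 sequencing and filtered on CDR length. These cells carried a synthetic nanobody library in Saccharomyces cerevisiae BJ5465 and were sorted by FACS into low and high (top ~1%) gates on anti-HA and streptavidin fluorescence. Polyreactivity is labelled according to the gate of origin.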

QDQLVESGGGLVQAGGSLRLSCAASGFTFYPYTRGWYRQAPGKERELVAAISKSGGSTYYADSVKGRFTISRDNAKNTVYLQMNSLKPEDSAVYYCAAQRYSYYTPDDDYWGQGTQVTVSS
polyreactivity (PSR sort gate): high polyreactivity

QVQLVESGGGLVQAGGSLRLSCAASGRTFYGYTMGWYRQAPGKERELVAAISWTGGRTYYADSVKGRFTISRDNAKNTVYLQMNSLKPEDTAVYYCAARRYQSEDVPYGYWGQGTQVTVSS
polyreactivity (PSR sort gate): high polyreactivity

QVQLVESGGGLVQAGGSLRLSCAASGSIFYPYAMGWYRQAPGKERELVARIRGTGGRTYYADSVKGRFTISRDNAKNTVYLQMNSLKPEDTAVYYCNAQTSGRVGSQYYSYYGSWGQGTQLTVSS
polyreactivity (PSR sort gate): high polyreactivity

QVQLVESGGGLVQAGGSLRLSCAASGRTFPVNAMGWYRQAPGKERELVASITYSGGSTYYADSVKGRFTISRDNAKNTVYLQMNSLKPEDTAVYYCAADWYRSPYDYWGQGTQVTVSS
polyreactivity (PSR sort gate): low polyreactivity

QVQLQESGGGLVQAGGSLRLSCAASGSIFEELDMGWYRQAPGKEREFVAAIGTGSTTYYADSVKGRFTISRDNAKNTVYLQMNSLKPEDTAVYYCAVTYSVYLPFRYWGQGTQVTVSS
polyreactivity (PSR sort gate): high polyreactivity

QVQLVESGGGLVQAGGSLRLSCAASGNTFCPYAMGWYRPAPGKERELVARISRSGSSTYYADSVKGRFTISRDNAKNTVYLQMNSLKPEDSAVYYCARGRTIRSSRTVGSWGQGTQVTVSS
polyreactivity (PSR sort gate): high polyreactivity

QVQLVESAGGLVQAVGSLRLSCAASGRICGIYAMGWYRQAPGKERELVAAISFIGGRTYYADSVKGRFTISRDNAKNTVYLQMNSLKPEDTAVYDCAARTVPSSRREYWGQGTQVTVSS
polyreactivity (PSR sort gate): high polyreactivity

QVQLVESGGGLVQAGGSLRLSCASSGSIFPRYAMGSYRPAPGKERELVAAISQSGGRTYYADSVKGRFTISRDNAKNTVYLQMNSMKPEDTAVYYCAALVSGEYDYWGQGTQVTVSS
polyreactivity (PSR sort gate): high polyreactivity

QVQLVESGGGLVQAGGSLRLSCAASGSTFYAYAMGWYRQAPGKERELVARIRWRGGRTYYADSVKGRFTISRDNAKNTVYLRMNSLKPEDTAVYYCNRGYYSYYGRYYYWGQGTQVTVSS
polyreactivity (PSR sort gate): high polyreactivity

QVQLVDSGGGLVQAGGSLRLRCAASGSTFGIYAMGWYRQAPGKERELVAAISWRGGRTYYADSVKGRFTITRDNAKNNVYFQMNSLKPEDTAVYYCAADYRYLWEGYDYWGQGTQVTVSS
polyreactivity (PSR sort gate): low polyreactivity

QVQLVESGGGLVQAGGSLRLSCAASGRIFYWYVMGWYRQAPGKERELVASISWSGGSTYYADSVKGRFTISRDNAKNTVYLQMNSLKPEDTAVYYCNAGSVYTVSLPGHPYDYWGQGTQVTVSS
polyreactivity (PSR sort gate): low polyreactivity

QVQLVESGGGLVQAGGSLRISCPASGTFYYYGMGWSRQAPGKERELVAAISWSGTSTFYADSVKGRFTISRDNAKNTVYIQMKSLKPEDTAVYYCHKPKFDSSGHDYWGQGTQETVSS
polyreactivity (PSR sort gate): low polyreactivity

QVQLVESGGGLVLAGGSLRLSCAASGRTFGYYTMGWYRQAPGKERELVAGISSAGSTNYADSVKGRFTLSRDYAKNTVYLQMNSLKPEDTAVYYCAARYQFYRYDSTYYYCGQGTQVTVSS
polyreactivity (PSR sort gate): high polyreactivity

QVQLVESGGGLVQAGGSLRLSCAASGRIFFTNAMGWYSQAPGKEREFVAAISKSGARTYYADSVKGRFTISRDNAKNTVYLQMISLKPEDTAVYYCAADVSVYGYYYWGQGTQVTVSS
polyreactivity (PSR sort gate): high polyreactivity

QVQLVESGGGLVQAGGSLRLSCAASGITFGGNAMGWSRQAPGKERELVAAIDEGGGSTYYADSVKGRFTISRDNAKNTVYLQMNSLKPEDTAVYYCAADFVYYGYYYWGQGTQVTVSS
polyreactivity (PSR sort gate): low polyreactivity

QVQLVESGGGLVQAGGSLRLSCAASGGTFRANAMGWYRQAPGKERELVAAISFRGGTTYYADSVKGRFTISRDNAKNTVYLQMNSLKPEDTAVYYCAARFLYYFRGKGYDYWGQGTQVTVSS
polyreactivity (PSR sort gate): high polyreactivity

QVQLVESGGGLVQAGGSLRLSCAASGYTFRQYTIGWYRPAPGKERELVDAISRSGGSTYYADSVKGRFTISRDNAKNTVFLQMNSLKPEDTAVYYCNAEGYGRTDGFGYDYWGQGTQVTVSS
polyreactivity (PSR sort gate): high polyreactivity

QVQLVESGGGLVQAGGSLRLSCAASGFTFRNYAMGWYRQAPGKERELVAAISKRGGNTYYADSVKGRFTISRDNAKNTVYLQLYSLKREDTAVYYCAADYQFSQDVWHFGYWGLGTQVTVSS
polyreactivity (PSR sort gate): high polyreactivity

QVQLVESGGGLVQAGGSLRLSCAASGSIFLYNAMGWYRQAPGKERELVAAISSSSDRTYYADSVKGRFTISRDNAKNTVYLQMNSLKPEDTAVYYCNVVYIGWRKYEYWGQGTQVTVSS
polyreactivity (PSR sort gate): high polyreactivity

QVQLVESGGGLVQAGGSLRLICAASGSTFEYYAMGWYRPAPGKERELVAAINGIGGSTTYADSVKGRFTISRDNAKNTVYLQMNSLKPEDSAVYYCNADVARSKSQASAYDYWGQGTQVTVSS
polyreactivity (PSR sort gate): low polyreactivity

QVQLVESGGGLVQAAGSLRLSCAASGRIFRRYAMGWYRQAPGKERELVAAITNNGANTYYADSVKGRFTISRDNAKNTVYLQMNSLKPEDTAVYDCARKSYPGRPAYRYDYWGQGTQVTVSS
polyreactivity (PSR sort gate): high polyreactivity

QVQLVESGGGLVQAGGSLRLSCAASGFNYYTMGWYRQAPGKERELVAAINYSGGRTYYADSVKGRFTISRDNAKNTVYLQMNSLKPEDTAVYYCNTARSPYDHRPERSYDYWGQGTQVTVSS
polyreactivity (PSR sort gate): high polyreactivity

QVQLVESGGGLVQAGGSLRLSCAASGSIFVTNAMGWYRQAPGKERELVAAISWRGGSTYYADSVKGRFTISRDNAKNTVYLQMNSLKPEDTAVYYCNTYHPYWGSGFDYWGQGTQVTVSS
polyreactivity (PSR sort gate): low polyreactivity

QVQLVESGGGLVQAGGSLRLSCAASGRTSLAYAMGWYRQAPGKERELVAAINTRGGSTYYADSVKGRFTISRDNAKNTVFLQINSLKPEDTAVYYCAKGPRLYFTRDKAHWKYDYWGQGTQVTVSS
polyreactivity (PSR sort gate): low polyreactivity

QGQLVESGGGLVQAGGSLRLSCAASGFTLLPYAMGWYRQAPGKERELVAAISRRGVSTYYADSVKGRFTISRDNAKNTVYLQMISLKPEDTAVYYCAAKYRKWPMDYWGQGTQVTVSS
polyreactivity (PSR sort gate): high polyreactivity

QVQLVESGGGLVQAGGSLRLSCAASGYIFPGNAMGWYRQAPGKERELVAAINWSGTRTYYADSVKGRFTISRDNAKNTVYLQLNSLKPEDTAVYYCNRVWRVPIETYTRYDYWGQGTQVTVSS
polyreactivity (PSR sort gate): high polyreactivity

QVQLVESGGGLVQAGGSLRLSCAASGRIFQGYAMGWYRQAPGKERELVASIRTGGTTNYADSVKGRFTISRDNAKNTVYLQMNRLKPEDTAVYYCNRGYYSYYGGYYYWGQGTQVTVSS
polyreactivity (PSR sort gate): high polyreactivity

QVQLVESGGGLVQAGGSLRLSCAASGSNFYVYAMGCYRQAPGKERELVAAINYDSGSTYYADSVKGRFTISRDTAKNTVYLQMNSLIPEDTAVYYCGTDGVNPFYAYDYWGQGTQVTVSS
polyreactivity (PSR sort gate): low polyreactivity

QVQLVESGGGLVQAGGSLRLSCAASGRIFSDYAMGWSSQAPGKERELVATITSGDSTNYADSVKGRFTISRDHAKNTVYLQMNSLKPEDTAVYYCNADRFADYDYWGQGTQVTVSS
polyreactivity (PSR sort gate): low polyreactivity

QVQLVESGGGLVQAGGSLRLSCAASGNTFAQNTMGWYRQAPGKEREFVAGITFSGTGTYYADSVKGRFTISRDNAKNTVYLQMNSLKPEDTAVYYCAADTPTPGLFYWFYPHRGYWGQGTQVTVSS
polyreactivity (PSR sort gate): low polyreactivity

QVQLVESGGGLVQAGGSLRLSCAASGFIFYRWYALGWYIQAPGKERELVAAIRSGGSTYYADSVKGRFTISRDNAKNTVYLQMNSLKPEDTAVYYCSTSGPQYYSRHFDYWGEGTQVTVSS
polyreactivity (PSR sort gate): low polyreactivity

QVQLVESGGRLVQAGGSLRLSCHASGIIFTAYAMGWYRPAPGKERELVAAITWSGGSTYYADSVKGRFTISRDNAKNTVYLQMNSLKPEDTAVYYCNGERPSFPFNYWGQGTQVTVSS
polyreactivity (PSR sort gate): low polyreactivity

QVQLVESGGGLVQAGGSLRLSCAASGIRFAQYTMGGYRQAHGKESELVAAINRNGGSTYYADSVKGRFTISRDNAKNTVYLQMNSLKPEDTPVYYCNADALGFRYDYWGQGTQVTVSS
polyreactivity (PSR sort gate): low polyreactivity

QVQLVESGGGLVQAGGILRLSCAASGRTFSSNAMGWYRQAPGKERELVAVISSGGSTYYADSVNGRFTISRDNAKNTVYLQLNSLKPEDTAVYYCAAAGGPSGYYYESDYWGQGTQVTVSS
polyreactivity (PSR sort gate): high polyreactivity

QVQLVESWGGLVQAGGSLRLSCDASGSIFVSNAMGWYRQAPGKERELVAAISRGGVNTNYADSVKGRFTISRDNAKNTVYLQMNSLKQEDTAVYYCAAKWSHVRDGPKYDYCGQGTQVTVSS
polyreactivity (PSR sort gate): low polyreactivity

QVQLVESGGGLVQAGGSLRLICPASGRIFRYYAMGWYRQARGKERELVAGITTGGGSTYYADSVKGRFTISRDNAKNTVFLQMNSLKPEDTAVYYCAARYYTTYYCGQGTQVTVSS
polyreactivity (PSR sort gate): high polyreactivity

QVQLVESGGGLVQAGGSLRLSCAASGRTFGYNAMGWYRQAPGKETELVAAIRYSGGSTYYADSVKGRFTISRDNSKNTVYLQMNSLKPEDTAVYYCAKETRRYYRGYYYWGQGTQVTVSS
polyreactivity (PSR sort gate): high polyreactivity

QVQLVESGGGLVQAGGSLRLSCAASGLTFRKNAMGWYRQAPGKERELVAAISFSGDRTYYADSVKGRFTISRDNAKNTVYLQMNSLKPEDTAVYYCAARSGVPGLEYDYWGQGTQVTVSS
polyreactivity (PSR sort gate): low polyreactivity

QVQLVESGGGLVQAGGSLRLICAASGFTFLVNAMGWYRQAPGKERELVAAISSGGSTYYADSVKGRFTISRDNAKNTVYLQMNSLKPEDTAVYYCAAPTDFLFWEFDYWGQGTQVTVSS
polyreactivity (PSR sort gate): low polyreactivity

QVQLVESGGRLVQAGGSLRLSCAASGYIFDWNAMGWYRQAPGKERELVAAISSGGRTNYADSVKGRFTISRDNAKITVYLQMNSLKPEDTAVYYCAAVYTDPYVEYDYWGQGTQVTVSS
polyreactivity (PSR sort gate): low polyreactivity

QVQLVESGGGLVQAGGSLRLSCAASGFISDWYAMGWFRQAPGKERELVATIDWLGGSTYAHSVKGRFTISRDNAKNTVYLQMNSLKPEDTAVYYCAADSYFIAWYGAPYAYDYWGQGTQVTVSS
polyreactivity (PSR sort gate): low polyreactivity

QVQLVESGGGLVQAGGSLRLSFAAYGSIFWGYAMGWYRQAPGKERELVAAISSSGGNTYYADSVKGRFTISRDNAKNTVYLQMNSLKPEDTAVYYCAATPEFYGGKITDVYSQYGYWGQGTQVTVSS
polyreactivity (PSR sort gate): low polyreactivity

QVQLVESGGGLVQAGGSLRLSCAASGRIFSYYAMGWYRQAPGKDRELVAAISRSGGRTYYADSVKGRFTISRDNAKNTVYLQMNSLNPEDTAVYYCAATFSRGYDYWGQGTQVTVSS
polyreactivity (PSR sort gate): high polyreactivity
